This passage reports IC50 results from US20220162261A1 (published 2022).

Broadly, the IC50 is the point on the concentration scale where inhibition reaches its midpoint. Low readings indicate inhibition by little substance, high ones a need for much substance.

This experiment deals with T1, human α4β7 integrin on cells (human, UniProt P13612 34-1032; P26010 20-798).
T1 construct: whole, on cells; also called α4β7 cell (Hu); RPMI8866 cells
Briefly: RPMI8866 cell adhesion to MAdCAM-1.

Numbered stars: 1 amine (or outer) side, 2 acyl side, 3 side chain; on linkers, the order of the positions; unused ones are H or OH. Bridge positions count the residues as written; N and C are the ends. Square brackets hold non-standard residues; d marks the D form. Primed or numbered codes have the meaning given here. Ends that are not written are not given here. Phe(4-OMe)″ = 4-methoxy-phenylalanine, COc1ccc(C[C@H](N[*:1])C(=O)[*:2])cc1; Phe(4-CF3) = N[C@@H](Cc1ccc(C(F)(F)F)cc1)C(=O)O; Phe(4-COOH) = N[C@@H](Cc1ccc(C(=O)O)cc1)C(=O)O; Phe(4-tBu) = CC(C)(C)c1ccc(C[C@H](N)C(=O)O)cc1; Phe(2,4-Cl2) = N[C@@H](Cc1ccc(Cl)cc1Cl)C(=O)O; Phe(2-CONH2) = NC(=O)c1ccccc1C[C@H](N)C(=O)O; Phe(4-F) = N[C@@H](Cc1ccc(F)cc1)C(=O)O; NMeR = CN[C@@H](CCCNC(=N)N)C(=O)O; Tic = O=C(O)[C@@H]1Cc2ccccc2CN1; β3hE = N[C@@H](CCC(=O)O)CC(=O)O; DIG = diglycolic acid (linker); Pen = CC(C)(S)[C@H](N)C(=O)O

B1: SEQ ID NO: 128 (peptide)
peptide: Ac-[Pen][NMeR]SDTL[Pen]WE-OH
modifications: disulfide 1-7
SMILES: CC(=O)N[C@@H]1C(=O)N(C)[C@@H](CCCNC(=N)N)C(=O)N[C@@H](CO)C(=O)N[C@@H](CC(=O)O)C(=O)N[C@@H]([C@@H](C)O)C(=O)N[C@@H](CC(C)C)C(=O)N[C@H](C(=O)N[C@@H](Cc2c[nH]c3ccccc23)C(=O)N[C@@H](CCC(=O)O)C(=O)O)C(C)(C)SSC1(C)C
For the molecule B1, the IC50 was above 50 nM.

B2: SEQ ID NO: 77 (peptide)
peptide: XRSDTLXWK
modifications: not fully specified; (Ac Pen N-Me-R S D T L Pen W N-Me-K NH2)2 DIG; disulfide Pen-Pen
With B2, the IC50 was above 100 nM.

With XRSDTLXWK (not fully specified; (Ac Pen N-Me-R S D T L Pen W k OH)2 DIG; disulfide Pen-Pen) [SEQ ID NO: 76], the IC50 is above 10 nM.

B3: SEQ ID NO: 98 (peptide)
peptide: Ac-[Pen][NMeR]SDTL[Pen][Phe(2-CONH2)][dE][dK]-NH2
modifications: disulfide 1-7; not fully specified (residue 10); printed as (Ac Pen N-Me-R S D T L Pen F(2-carbamoyl) e k NH2)2 DIG, disulfide Pen-Pen; also: homodimer (…)2 DIG: the two subunits are joined through the K10 NZ by the DIG linker
The molecule B3 had an IC50 above 50 nM.

B4: SEQ ID NO: 186 (peptide)
peptide: Ac-[Pen][NMeR]SDIL[Pen][Phe(4-tBu)][β3hE][dK]-NH2
modifications: disulfide 1-7; not fully specified (residue 10); printed as (Ac Pen N-Me-R S D I L Pen F(4-tBu) b-H-E k NH2)2 IDA, disulfide Pen-Pen; also: homodimer: two subunits joined by IDA linker
Consider B4, for which the IC50 is above 100 nM.

B5: SEQ ID NO: 193 (peptide)
peptide: Ac-[Pen][NMeR]SDDL[Pen][Phe(4-tBu)][β3hE][dK]-NH2
modifications: disulfide 1-7; also: homodimer via IDA linker on D-Lys10 side chains, Alexa-647 label
B5 showed a half-inhibitory concentration (IC50) above 100000 nM.

Ac-[Pen][NMeR]SDIL[Pen][Phe(4-tBu)][β3hE][dK]-NH2 (disulfide 1-7; also: homodimer via IDA linker carrying Alexa-647) [SEQ ID NO: 188] had an IC50 of at most 10 nM.

With Ac-[Pen][NMeR]SDDL[Pen][Phe(4-tBu)][β3hE][dK]-NH2 (disulfide 1-7; also: homodimer via IDA linker on D-Lys10 side chains) [SEQ ID NO: 191], the IC50 was above 10000 nM.

For the molecule Ac-[Pen][NMeR]SDTQ[Pen][Phe(4-tBu)][β3hE][dK]-NH2 (disulfide 1-7; also: homodimer: two subunits joined by IDA linker) [SEQ ID NO: 187], the IC50 is above 100 nM.

B6: SEQ ID NO: 93 (peptide)
peptide: Ac-[Pen][NMeR]SDTLC[Tic][dE][dK](DIG)-NH2
modifications: disulfide 1-7; also: homodimer (…)2 DIG: the two subunits are joined through the K10 NZ by the DIG linker
Take B6: the IC50 is above 500 nM.

B7: SEQ ID NO: 106 (peptide)
peptide: Ac-[Pen][NMeR]SDTL[Pen][Phe(4-tBu)][dE][dK]-NH2
modifications: disulfide 1-7; not fully specified (residue 10); printed as (Ac Pen N-Me-R S D T L Pen F(4tBu) e k NH2)2 DIG, disulfide Pen-Pen; also: homodimer: two subunits joined by DIG linker
B7 returned an IC50 of at most 10 nM.

B8: SEQ ID NO: 100 (peptide)
peptide: Ac-[Pen][NMeR]SDTL[Pen][Phe(4-COOH)][dE][dK]-NH2
modifications: disulfide 1-7; not fully specified (residue 10); printed as (Ac Pen N-Me-R S D T L Pen F(4-COOH) e k NH2)2 DIG; also: homodimer: two subunits joined by DIG linker
As for B8, the IC50 is at most 10 nM.

B9: SEQ ID NO: 5 (peptide)
peptide: Ac-[dK]C[NMeR]SDTLCW[dK]-NH2
modifications: disulfide 2-8 (inferred); not fully specified; printed as DIG (Ac k C N-Me-R S D T L C W k NH2)2 DIG
notes: DIG printed at both ends
B9 displayed an IC50 above 50 nM.

B10: SEQ ID NO: 122 (peptide)
peptide: Ac-[Pen][NMeR]SDTL[Pen][Phe(4-CF3)][dE][dK]-NH2
modifications: disulfide 1-7; not fully specified (residue 10); printed as (Ac Pen N-Me-R S D T L Pen F(4CF3) e k NH2)2 DIG, disulfide Pen-Pen; also: homodimer: two subunits joined by DIG linker
In turn, B10 showed an IC50 above 50 nM.

B11: SEQ ID NO: 107 (peptide)
peptide: Ac-[Pen][NMeR]SDTL[Pen][Phe(4-F)][dE][dK]-NH2
modifications: disulfide 1-7; not fully specified (residue 10); printed as (Ac Pen N-Me-R S D T L Pen F(4-F) e k NH2)2 DIG, disulfide Pen-Pen; also: homodimer: two subunits joined by DIG linker
B11 yielded an IC50 above 25 nM.

B12: SEQ ID NO: 6 (peptide)
peptide: C[NMeR]SDTLCW-NH2
modifications: disulfide 1-7 (inferred); not fully specified (N-terminus); printed as DIG NH2 C N-Me-R S D T L C W NH2; also: N-terminal DIG linker, number of subunits not shown
notes: N-terminal linker printed without dimer brackets
As for B12, the IC50 was above 50 nM.

B13: SEQ ID NO: 103 (peptide)
peptide: Ac-[Pen][NMeR]SDTL[Pen][Phe(4-OMe)″][dE][dK]-NH2
modifications: disulfide 1-7; not fully specified (residue 10); printed as (Ac Pen N-Me-R S D T L Pen F(4-OMe) e k NH2)2 DIG; also: homodimer: two subunits joined by DIG linker
B13: the IC50 was above 25 nM.

B14: SEQ ID NO: 7 (peptide)
peptide: [Pen][NMeR]SDTL[Pen][dF]-NH2
modifications: disulfide 1-7; not fully specified (N-terminus); printed as DIG NH2 Pen N-Me-R S D T L Pen f NH2, disulfide Pen-Pen; also: DIG linker at N-terminus, number of subunits not shown
notes: as for B12
Molecule B14 yielded an IC50 above 1000 nM.

XRSDTLXW (Ac Pen N-Me-R S D T L Pen W OH; disulfide Pen-Pen) [SEQ ID NO: 127] came in with an IC50 above 100 nM.

B15: SEQ ID NO: 101 (peptide)
peptide: Ac-[Pen][NMeR]SDTL[Pen][Phe(2,4-Cl2)][dE][dK]-NH2
modifications: disulfide 1-7; not fully specified (residue 10); also: homodimer: two subunits joined by DIG linker
notes: F(2,4-ci) as printed
As to B15, the IC50 is above 50 nM.
